Assays:
[1] = biological target: T1, human CD40 (human, UniProt P25942 21-193); assay: cell-based or functional assay
[2] = biological target: T2, cynomolgus CD40 (cynomolgus monkey, UniProt G7PG38 21-193); assay: cell-based or functional assay
[3] = biological target: T1, human CD40; assay: cell-based or functional assay; parameters: IC50, suppression of CHO CD40L-induced IL-6 production by monocyte-derived DCs; n=4 donors (mass units as printed) / IC50, suppression of CHO CD40L-induced TNFα production by monocyte-derived DCs; n=4 donors (mass units as printed): unit not given beside the values
[4] = biological target: T3, hCD64 (human, UniProt P12314 16-288, limits assumed); assay: FcγR binding, SPR (method per paragraph 74)
T3 construct: also called human CD64
T3 sequence (P12314 16-288 limits assumed): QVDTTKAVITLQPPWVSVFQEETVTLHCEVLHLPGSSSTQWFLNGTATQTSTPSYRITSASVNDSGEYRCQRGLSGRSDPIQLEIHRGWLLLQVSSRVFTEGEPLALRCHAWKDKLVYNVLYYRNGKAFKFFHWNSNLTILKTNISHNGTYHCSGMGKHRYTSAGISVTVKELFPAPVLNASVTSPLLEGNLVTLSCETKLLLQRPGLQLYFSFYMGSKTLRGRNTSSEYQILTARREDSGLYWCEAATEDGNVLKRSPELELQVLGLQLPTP

[5] = biological target: T4, hCD32b (human, UniProt P31994 43-217, limits assumed); assay: FcγR binding, SPR (method per paragraph 74)
T4 construct: also called hCD32b/FcγRIIb
T4 sequence (looked up): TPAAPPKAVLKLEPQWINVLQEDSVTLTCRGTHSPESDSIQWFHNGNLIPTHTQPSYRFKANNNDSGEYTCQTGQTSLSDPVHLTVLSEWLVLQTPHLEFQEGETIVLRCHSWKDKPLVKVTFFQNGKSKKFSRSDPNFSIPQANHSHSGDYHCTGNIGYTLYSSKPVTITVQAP

[6] = biological target: T5, hCD16a-V158 (human, UniProt P08637 17-208, limits assumed); assay: FcγR binding, SPR (method per paragraph 74)
T5 construct: Position 158 is the customary allotype numbering; also called hCD16a/FcγRIIIa, V158 variant
T5 sequence (P08637 17-208 F176V limits assumed): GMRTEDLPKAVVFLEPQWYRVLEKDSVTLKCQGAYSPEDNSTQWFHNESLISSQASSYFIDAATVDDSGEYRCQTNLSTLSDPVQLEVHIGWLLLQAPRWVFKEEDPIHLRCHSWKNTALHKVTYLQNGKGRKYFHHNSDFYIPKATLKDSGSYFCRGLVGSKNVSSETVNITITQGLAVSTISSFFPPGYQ

[7] = biological target: T6, hCD16a-F158 (human, UniProt P08637 17-208, limits assumed); assay: FcγR binding, SPR (method per paragraph 74)
T6 construct: Position 158 is the customary allotype numbering; also called hCD16a/FcγRIIIa, F158 variant
T6 sequence (P08637 17-208 limits assumed): as the sequence (P08637 17-208 F176V limits assumed) above, with V160F counted along it

[8] = biological target: T7, cyCD32a (cynomolgus monkey, UniProt A0A140HDN0 30-216); assay: FcγR binding, SPR (method per paragraph 74)
T7 construct: also called cynomolgus CD32a
T7 sequence: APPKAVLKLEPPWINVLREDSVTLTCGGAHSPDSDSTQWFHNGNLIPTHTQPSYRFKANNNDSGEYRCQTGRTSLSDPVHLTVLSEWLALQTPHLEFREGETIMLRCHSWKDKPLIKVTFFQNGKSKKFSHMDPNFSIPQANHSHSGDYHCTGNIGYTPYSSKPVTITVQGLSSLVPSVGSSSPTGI

[9] = biological target: T8, cyCD32b (cynomolgus monkey, UniProt A0A140HDP4 43-217); assay: FcγR binding, SPR (method per paragraph 74)
T8 construct: also called cynomolgus CD32b
T8 sequence: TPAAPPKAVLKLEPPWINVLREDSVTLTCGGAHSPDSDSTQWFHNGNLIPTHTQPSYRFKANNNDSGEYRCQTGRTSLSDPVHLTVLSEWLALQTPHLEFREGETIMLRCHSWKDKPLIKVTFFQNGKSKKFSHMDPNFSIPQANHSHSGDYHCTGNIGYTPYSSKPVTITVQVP

[10] = biological target: T9, cyCD16 (cynomolgus monkey, UniProt Q8SPW2 17-208, limits assumed); assay: FcγR binding, SPR (method per paragraph 74)
T9 construct: also called cynomolgus CD16
T9 sequence (Q8SPW2 17-208 limits assumed): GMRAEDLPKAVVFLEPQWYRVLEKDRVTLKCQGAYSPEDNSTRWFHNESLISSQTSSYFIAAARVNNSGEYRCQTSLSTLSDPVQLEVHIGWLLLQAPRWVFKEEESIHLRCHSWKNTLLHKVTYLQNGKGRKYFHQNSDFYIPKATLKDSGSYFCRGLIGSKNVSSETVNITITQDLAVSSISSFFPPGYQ

[11] = biological target: T3, hCD64; assay: FcγR binding, SPR (method per paragraph 74); remark: listed apart in the source
[12] = biological target: T10, hCD32a-H131 (human, UniProt P12318 36-218, limits assumed); assay: FcγR binding, SPR (method per paragraph 74)
T10 construct: Position 131 is the customary allotype numbering; also called hCD32a/FcγRIIa, H131 variant
T10 sequence (looked up): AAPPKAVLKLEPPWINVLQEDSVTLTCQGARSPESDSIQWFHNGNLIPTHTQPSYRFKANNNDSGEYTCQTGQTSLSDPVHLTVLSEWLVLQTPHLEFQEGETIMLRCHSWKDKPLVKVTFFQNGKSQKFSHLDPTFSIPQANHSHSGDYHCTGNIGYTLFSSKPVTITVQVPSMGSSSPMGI

[13] = biological target: T11, hCD32a-R131 (human, UniProt P12318 36-218, limits assumed); assay: FcγR binding, SPR (method per paragraph 74)
T11 construct: Position 131 is the customary allotype numbering; also called hCD32a/FcγRIIa, R131 variant
T11 sequence (looked up): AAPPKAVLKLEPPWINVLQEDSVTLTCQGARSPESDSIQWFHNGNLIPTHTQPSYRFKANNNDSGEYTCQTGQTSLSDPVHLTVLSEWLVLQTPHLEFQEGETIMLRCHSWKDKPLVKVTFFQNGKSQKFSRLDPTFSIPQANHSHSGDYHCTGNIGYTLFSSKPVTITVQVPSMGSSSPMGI

[14] = biological target: T12, murine CD40 (murine, UniProt P27512 24-193, limits assumed); assay: single-cycle kinetic SPR, CD40 on the surface
T12 construct: also called murine CD40 receptors
T12 sequence (looked up): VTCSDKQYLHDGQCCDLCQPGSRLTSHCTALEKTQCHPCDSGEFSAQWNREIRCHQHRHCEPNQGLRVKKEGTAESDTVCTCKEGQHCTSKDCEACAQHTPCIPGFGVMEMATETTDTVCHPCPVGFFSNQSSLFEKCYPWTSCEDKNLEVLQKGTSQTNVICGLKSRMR

[15] = biological target: T1, human CD40; assay: SPR, antibody captured on protein A chip, monomeric CD40 as analyte
[16] = biological target: T2, cynomolgus CD40; assay: as above
[17] = biological target: T1, human CD40; assay: direct binding of AF488-labeled antibody to CD20-positive B cells in human whole blood; n=4 donors
[18] = biological target: T2, cynomolgus CD40; assay: direct binding of AF488-labeled antibody to CD20-positive B cells in cynomolgus monkey whole blood; n=2 donors
[19] = biological target: T2, cynomolgus CD40; assay: binding to CD20-positive B cells in cynomolgus monkey whole blood, detected with secondary anti-human IgG1-PE; n=4 donors
[20] = biological target: T1, human CD40; assay: direct binding of AF488-labeled antibody to CD20-positive B cells in human whole blood; n=4 donors (same result in mass units)
[21] = biological target: T2, cynomolgus CD40; assay: direct binding of AF488-labeled antibody to CD20-positive B cells in cynomolgus monkey whole blood; n=2 donors (same result in mass units)
[22] = biological target: T2, cynomolgus CD40; assay: binding to CD20-positive B cells in cynomolgus monkey whole blood, detected with secondary anti-human IgG1-PE; n=4 donors (same result in mass units)

T1 sequence (P25942 21-193 limits assumed): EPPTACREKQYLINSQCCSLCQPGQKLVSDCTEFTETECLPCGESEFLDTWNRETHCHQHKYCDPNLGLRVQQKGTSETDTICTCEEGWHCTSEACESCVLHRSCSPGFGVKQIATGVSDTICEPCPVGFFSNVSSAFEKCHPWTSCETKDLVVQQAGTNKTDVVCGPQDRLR

B1: BMS-986325 (antibody, human IgG1, kappa)
heavy: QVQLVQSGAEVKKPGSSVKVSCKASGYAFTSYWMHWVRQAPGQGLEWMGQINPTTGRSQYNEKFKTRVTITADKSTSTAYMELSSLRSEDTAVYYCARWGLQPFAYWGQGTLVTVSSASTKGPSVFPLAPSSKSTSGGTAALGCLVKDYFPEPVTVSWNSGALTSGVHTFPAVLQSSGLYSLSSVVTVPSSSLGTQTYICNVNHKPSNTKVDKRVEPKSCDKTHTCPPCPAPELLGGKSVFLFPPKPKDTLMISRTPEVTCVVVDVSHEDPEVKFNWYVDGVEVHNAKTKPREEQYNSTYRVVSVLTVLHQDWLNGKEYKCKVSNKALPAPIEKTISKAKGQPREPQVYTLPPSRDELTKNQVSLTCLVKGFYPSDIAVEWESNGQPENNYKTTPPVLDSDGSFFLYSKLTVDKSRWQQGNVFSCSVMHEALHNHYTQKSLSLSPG
light: DIQMTQSPSFLSASVGDRVTITCKASQDVSTAVAWYQQKPGKAPKLLIYSASYRYTGVPSRFSGSGSGTDFTLTISSLQPEDFATYYCQQHYSTPWTFGGGTKVEIKRTVAAPSVFIFPPSDEQLKSGTASVVCLLNNFYPREAKVQWKVDNALQSGNSQESVTEQDSKDSTYSLSSTLTLSKADYEKHKVYACEVTHQGLSSPVTKSFNRGEC
notes: also called Y12XX-hz28-P238K; Y12XX-hz28 (Vh-hz14)
Q: B1 was tested. Which “IC50, inhibition of CD54 upregulation on human B cells in whole blood stimulated by soluble CD40L trimer; n=10 donors” value [1] did it give?
A: 0.24 nM

Q: What about the “IC50, inhibition of CD54 upregulation on human B cells in whole blood stimulated by soluble CD40L trimer; n=10 donors (mass units)” value [1] of the same binder?
A: 0.0346 µg/mL

Q: And the “IC50, inhibition of CD86 upregulation on human B cells in whole blood stimulated by soluble CD40L trimer; n=10 donors” value [1]?
A: 0.24 nM

Q: What about the “IC50, inhibition of CD86 upregulation on human B cells in whole blood stimulated by soluble CD40L trimer; n=10 donors (mass units)” value [1] of the same binder?
A: 0.0342 µg/mL

Q: What about the “IC50, inhibition of human tonsillar B-cell proliferation stimulated by soluble CD40L trimer; n=10 donors” value [1] of the same binder?
A: 0.04 nM

Q: And the “IC50, inhibition of human tonsillar B-cell proliferation stimulated by soluble CD40L trimer; n=10 donors (mass units)” value [1]?
A: 0.0056 µg/mL

Q: And the “IC50, inhibition of tonsillar B-cell proliferation stimulated by CD40L-expressing CHO cells; n=8 donors” value [1]?
A: 0.28 nM

Q: And the “IC50, inhibition of tonsillar B-cell proliferation stimulated by CD40L-expressing CHO cells; n=8 donors (mass units)” value [1]?
A: 0.0399 µg/mL

Q: What about the “IC50, inhibition of CD86 upregulation on cynomolgus B cells in whole blood stimulated by soluble CD40L trimer; n=8 donors” value [2] of the same binder?
A: 0.25 nM

Q: And the “IC50, inhibition of CD86 upregulation on cynomolgus B cells in whole blood stimulated by soluble CD40L trimer; n=8 donors (mass units)” value [2]?
A: 0.0364 µg/mL

Q: What about the “IC50, inhibition of cynomolgus splenic B-cell proliferation driven by CD40L-expressing CHO cells; n=6 donors” value [2] of the same binder?
A: 4.5 nM

Q: And the “IC50, inhibition of cynomolgus splenic B-cell proliferation driven by CD40L-expressing CHO cells; n=6 donors (mass units)” value [2]?
A: 0.65 µg/mL

Q: And the “IC50, inhibition of cynomolgus splenic B-cell proliferation driven by CD40L-trimer; n=6 donors” value [2]?
A: 0.19 nM

Q: And the “IC50, inhibition of cynomolgus splenic B-cell proliferation driven by CD40L-trimer; n=6 donors (mass units)” value [2]?
A: 0.0278 µg/mL

Q: What about the “IC50, suppression of CHO CD40L-induced IL-6 production by monocyte-derived DCs; n=4 donors” value [3] of the same binder?
A: 0.08 nM

Q: And the “IC50, suppression of CHO CD40L-induced IL-6 production by monocyte-derived DCs; n=4 donors (mass units as printed)” value [3]?
A: 11.3

Q: And the “IC50, suppression of CHO CD40L-induced TNFα production by monocyte-derived DCs; n=4 donors” value [3]?
A: 0.1 nM

Q: And the “IC50, suppression of CHO CD40L-induced TNFα production by monocyte-derived DCs; n=4 donors (mass units as printed)” value [3]?
A: 13.3

Q: And the “fold weaker binding than wild-type human IgG1 control” value [4]?
A: 100 fold

Q: Does B1 bind [5]?
A: no binding

Q: Does B1 bind [6]?
A: no binding

Q: Does B1 bind [7]?
A: no binding

Q: Does B1 bind [8]?
A: no binding

Q: Does B1 bind [9]?
A: no binding

Q: Does B1 bind [10]?
A: no binding

Q: And the Kd [11]?
A: 17 nM

Q: Does B1 bind [12]?
A: no binding

Q: Does B1 bind [13]?
A: no binding

Q: Does B1 bind [14]?
A: no binding

Q: And the Kd [15]?
A: 5.3 nM

Q: What about the koff [15] of the same binder?
A: 0.0012 s⁻¹

Q: What about the kon [15] of the same binder?
A: 230000 M⁻¹ s⁻¹

Q: And the Kd [16]?
A: 6.7 nM

Q: What about the koff [16] of the same binder?
A: 0.0016 s⁻¹

Q: What about the kon [16] of the same binder?
A: 240000 M⁻¹ s⁻¹

Q: What about the EC50 [17] of the same binder?
A: 0.9 nM

Q: What about the EC50 [18] of the same binder?
A: 1 nM

Q: What about the EC50 [19] of the same binder?
A: 0.7 nM

Q: What about the EC50 [20] of the same binder?
A: 0.13 µg/mL

Q: And the EC50 [21]?
A: 0.149 µg/mL

Q: What about the EC50 [22] of the same binder?
A: 0.106 µg/mL
